Starred links: 1 amine or outer side, 2 acyl side, 3 side chain; linkers in the order of their positions; H or OH if unused. Positions of bridges follow the written chain, without caps; N, C: chain ends. Non-standard residues stand in square brackets, D forms with d. dTyr(4-OMe) = O-methyl-D-tyrosine (4-OMe), COc1ccc(C[C@@H](N[*:1])C(=O)[*:2])cc1; dPhe(4-Br) = N[C@H](Cc1ccc(Br)cc1)C(=O)O; 2Pal = N[C@@H](Cc1ccccn1)C(=O)O; 3Pal = N[C@@H](Cc1cccnc1)C(=O)O; 4Pal = N[C@@H](Cc1ccncc1)C(=O)O; Cit = NC(=O)NCCC[C@H](N)C(=O)O; Nle = CCCC[C@H](N)C(=O)O; Orn = NCCC[C@H](N)C(=O)O; Aib = CC(C)(N)C(=O)O

These results are taken from patent US20240391954A1, “MC4R AGONIST PEPTIDES” (The Regents of the University of Michigan, priority 2021, published 2024).

B1: CTX-1633 (peptide)
peptide: Ac-C[Aib][Cit][dF]RWC-NH2
modifications: disulfide 1-7
SMILES: CC(=O)N[C@H]1CSSC[C@@H](C(N)=O)NC(=O)[C@H](Cc2c[nH]c3ccccc23)NC(=O)[C@H](CCCNC(=N)N)NC(=O)[C@@H](Cc2ccccc2)NC(=O)[C@H](CCCNC(N)=O)NC(=O)C(C)(C)NC1=O
B2: CTX-1623 (peptide)
peptide: Ac-R[Nle]CR[dPhe(4-Br)]RFC-NH2
modifications: disulfide 3-8
SMILES: CCCC[C@H](NC(=O)[C@H](CCCNC(=N)N)NC(C)=O)C(=O)N[C@H]1CSSC[C@@H](C(N)=O)NC(=O)[C@H](Cc2ccccc2)NC(=O)[C@H](CCCNC(=N)N)NC(=O)[C@@H](Cc2ccc(Br)cc2)NC(=O)[C@H](CCCNC(=N)N)NC1=O
B3: CTX-1628 (peptide)
peptide: Ac-C[dA][Cit][dF]RWC-NH2
modifications: disulfide 1-7
SMILES: CC(=O)N[C@H]1CSSC[C@@H](C(N)=O)NC(=O)[C@H](Cc2c[nH]c3ccccc23)NC(=O)[C@H](CCCNC(=N)N)NC(=O)[C@@H](Cc2ccccc2)NC(=O)[C@H](CCCNC(N)=O)NC(=O)[C@@H](C)NC1=O
B4: CTX-1621 (peptide)
peptide: Ac-R[Nle]C[4Pal][dF]RWC-NH2
modifications: disulfide 3-8
SMILES: CCCC[C@H](NC(=O)[C@H](CCCNC(=N)N)NC(C)=O)C(=O)N[C@H]1CSSC[C@@H](C(N)=O)NC(=O)[C@H](Cc2c[nH]c3ccccc23)NC(=O)[C@H](CCCNC(=N)N)NC(=O)[C@@H](Cc2ccccc2)NC(=O)[C@H](Cc2ccncc2)NC1=O
B5: CTX-1622 (peptide)
peptide: Ac-R[Nle]CR[dF]RFC-NH2
modifications: disulfide 3-8
SMILES: CCCC[C@H](NC(=O)[C@H](CCCNC(=N)N)NC(C)=O)C(=O)N[C@H]1CSSC[C@@H](C(N)=O)NC(=O)[C@H](Cc2ccccc2)NC(=O)[C@H](CCCNC(=N)N)NC(=O)[C@@H](Cc2ccccc2)NC(=O)[C@H](CCCNC(=N)N)NC1=O
B6: CTX-1620 (peptide)
peptide: Ac-R[Nle]C[3Pal][dF]RWC-NH2
modifications: disulfide 3-8
SMILES: CCCC[C@H](NC(=O)[C@H](CCCNC(=N)N)NC(C)=O)C(=O)N[C@H]1CSSC[C@@H](C(N)=O)NC(=O)[C@H](Cc2c[nH]c3ccccc23)NC(=O)[C@H](CCCNC(=N)N)NC(=O)[C@@H](Cc2ccccc2)NC(=O)[C@H](Cc2cccnc2)NC1=O
B7: CTX-1630 (peptide)
peptide: Ac-CG[Cit][dF]RWC-NH2
modifications: disulfide 1-7
SMILES: CC(=O)N[C@H]1CSSC[C@@H](C(N)=O)NC(=O)[C@H](Cc2c[nH]c3ccccc23)NC(=O)[C@H](CCCNC(=N)N)NC(=O)[C@@H](Cc2ccccc2)NC(=O)[C@H](CCCNC(N)=O)NC(=O)CNC1=O
B8: CTX-1629 (peptide)
peptide: Ac-CGR[dF]RWC-NH2
modifications: disulfide 1-7
SMILES: CC(=O)N[C@H]1CSSC[C@@H](C(N)=O)NC(=O)[C@H](Cc2c[nH]c3ccccc23)NC(=O)[C@H](CCCNC(=N)N)NC(=O)[C@@H](Cc2ccccc2)NC(=O)[C@H](CCCNC(=N)N)NC(=O)CNC1=O
B9: CTX-1632 (peptide)
peptide: Ac-C[Aib]R[dF]RWC-NH2
modifications: disulfide 1-7
SMILES: CC(=O)N[C@H]1CSSC[C@@H](C(N)=O)NC(=O)[C@H](Cc2c[nH]c3ccccc23)NC(=O)[C@H](CCCNC(=N)N)NC(=O)[C@@H](Cc2ccccc2)NC(=O)[C@H](CCCNC(=N)N)NC(=O)C(C)(C)NC1=O
B10: CTX-1617 (peptide)
peptide: Ac-R[Nle]C[Orn][dF]RWC-NH2
modifications: disulfide 3-8
SMILES: CCCC[C@H](NC(=O)[C@H](CCCNC(=N)N)NC(C)=O)C(=O)N[C@H]1CSSC[C@@H](C(N)=O)NC(=O)[C@H](Cc2c[nH]c3ccccc23)NC(=O)[C@H](CCCNC(=N)N)NC(=O)[C@@H](Cc2ccccc2)NC(=O)[C@H](CCCN)NC1=O
B11: CTX-1626 (peptide)
peptide: Ac-R[Nle]C[Cit][dF]RFC-NH2
modifications: disulfide 3-8
SMILES: CCCC[C@H](NC(=O)[C@H](CCCNC(=N)N)NC(C)=O)C(=O)N[C@H]1CSSC[C@@H](C(N)=O)NC(=O)[C@H](Cc2ccccc2)NC(=O)[C@H](CCCNC(=N)N)NC(=O)[C@@H](Cc2ccccc2)NC(=O)[C@H](CCCNC(N)=O)NC1=O
B12: CTX-1624 (peptide)
peptide: Ac-R[Nle]CR[dTyr(4-OMe)]RFC-NH2
modifications: disulfide 3-8
SMILES: CCCC[C@H](NC(=O)[C@H](CCCNC(=N)N)NC(C)=O)C(=O)N[C@H]1CSSC[C@@H](C(N)=O)NC(=O)[C@H](Cc2ccccc2)NC(=O)[C@H](CCCNC(=N)N)NC(=O)[C@@H](Cc2ccc(OC)cc2)NC(=O)[C@H](CCCNC(=N)N)NC1=O
B13: CTX-1627 (peptide)
peptide: Ac-C[dA]R[dF]RWC-NH2
modifications: disulfide 1-7
SMILES: CC(=O)N[C@H]1CSSC[C@@H](C(N)=O)NC(=O)[C@H](Cc2c[nH]c3ccccc23)NC(=O)[C@H](CCCNC(=N)N)NC(=O)[C@@H](Cc2ccccc2)NC(=O)[C@H](CCCNC(=N)N)NC(=O)[C@@H](C)NC1=O
B14: CTX-1619 (peptide)
peptide: Ac-R[Nle]C[2Pal][dF]RWC-NH2
modifications: disulfide 3-8
SMILES: CCCC[C@H](NC(=O)[C@H](CCCNC(=N)N)NC(C)=O)C(=O)N[C@H]1CSSC[C@@H](C(N)=O)NC(=O)[C@H](Cc2c[nH]c3ccccc23)NC(=O)[C@H](CCCNC(=N)N)NC(=O)[C@@H](Cc2ccccc2)NC(=O)[C@H](Cc2ccccn2)NC1=O

The target of one experiment is T1, human MC4R receptor (human, UniProt P32245 1-332). The experiment can be described thus: cell-based or functional assay.
T1 sequence (P32245 whole entry): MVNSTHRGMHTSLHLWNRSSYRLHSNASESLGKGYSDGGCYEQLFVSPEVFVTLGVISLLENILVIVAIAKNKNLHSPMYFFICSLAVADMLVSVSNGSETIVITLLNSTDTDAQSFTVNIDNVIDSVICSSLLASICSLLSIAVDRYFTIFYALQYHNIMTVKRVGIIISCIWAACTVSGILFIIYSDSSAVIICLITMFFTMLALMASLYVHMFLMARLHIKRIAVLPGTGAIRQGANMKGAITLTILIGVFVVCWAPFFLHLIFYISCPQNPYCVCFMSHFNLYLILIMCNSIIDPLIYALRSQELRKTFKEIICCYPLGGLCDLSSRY
In the case of B1, the “MC4R selectivity vs MC1R” value worked out at 942 and the “MC4R selectivity vs MC3R” value stood at 104.

As to B2, the “MC4R selectivity vs MC1R” value came out at 1.08 and the “MC4R selectivity vs MC3R” value is 2.29.

Consider B3, for which the “MC4R selectivity vs MC1R” value worked out at 191 and the “MC4R selectivity vs MC3R” value was 6.37.

On to B4, for which the “MC4R selectivity vs MC1R” value was determined as 82 and the “MC4R selectivity vs MC3R” value came out at 13.

For the molecule B5, the “MC4R selectivity vs MC1R” value came out at 0.39 and the “MC4R selectivity vs MC3R” value amounted to 0.32.

Take Ac-R[Nle]CR[dF]R[dW]C-NH2 (disulfide 3-8) [CTX-1616]: the “MC4R selectivity vs MC1R” value is 1.51 and the “MC4R selectivity vs MC3R” value is 3.78.

With B6, the “MC4R selectivity vs MC1R” value turned out to be 47 and the “MC4R selectivity vs MC3R” value was 12.

On to B7, for which the “MC4R selectivity vs MC1R” value was found to be 1820 and the “MC4R selectivity vs MC3R” value was 28.

As to B8, the “MC4R selectivity vs MC1R” value was 15 and the “MC4R selectivity vs MC3R” value is 19.

For the molecule B9, the “MC4R selectivity vs MC1R” value came out at 3.18 and the “MC4R selectivity vs MC3R” value worked out at 36.

For B10, the “MC4R selectivity vs MC1R” value stood at 1.75 and the “MC4R selectivity vs MC3R” value came out at 11.

As for B11, the “MC4R selectivity vs MC1R” value was determined as 3.05 and the “MC4R selectivity vs MC3R” value was found to be 1.6.

Regarding B12, the “MC4R selectivity vs MC1R” value was 0.15 and the “MC4R selectivity vs MC3R” value stood at 0.47.

B13: the “MC4R selectivity vs MC1R” value is 9.33 and the “MC4R selectivity vs MC3R” value was 2.47.

Consider B14, for which the “MC4R selectivity vs MC1R” value came to 86 and the “MC4R selectivity vs MC3R” value came out at 13.

Another experiment has as its target T1, human MC4R receptor. The experiment can be described thus: cell-based or functional assay. This is another data set of the same source.
For B1, the “% max activation” value amounted to 110% and the “cAMP EC50” value was 2.8 nM.

For B2, the “% max activation” value came to 73% and the “cAMP EC50” value was found to be 1.7 nM.

In the case of B3, the “% max activation” value is 99% and the “cAMP EC50” value stood at 14 nM.

Regarding B4, the “% max activation” value amounted to 92% and the “cAMP EC50” value was found to be 2.9 nM.

For B5, the “% max activation” value amounted to 101% and the “cAMP EC50” value was 41 nM.

Ac-R[Nle]CR[dF]R[dW]C-NH2 (disulfide 3-8) [CTX-1616]: the “% max activation” value turned out to be 93% and the “cAMP EC50” value came to 16 nM.

Regarding B6, the “% max activation” value amounted to 91% and the “cAMP EC50” value stood at 4.7 nM.

Consider B7, for which the “% max activation” value came to 102% and the “cAMP EC50” value was 22 nM.

For the molecule B8, the “% max activation” value was 102% and the “cAMP EC50” value amounted to 0.67 nM.

For the molecule B9, the “% max activation” value turned out to be 105% and the “cAMP EC50” value was 0.51 nM.

With B10, the “% max activation” value is 102% and the “cAMP EC50” value worked out at 0.21 nM.

Turning to B11, the “% max activation” value was 83% and the “cAMP EC50” value was 425 nM.

Consider B12, for which the “% max activation” value came out at 83% and the “cAMP EC50” value was 12 nM.

Take B13: the “% max activation” value was 104% and the “cAMP EC50” value was 1.4 nM.

For B14, the “% max activation” value was found to be 99% and the “cAMP EC50” value came to 2.6 nM.

The target in a further experiment is human MC3R (human, UniProt P41968 1-323). The experiment can be described thus: cell-based or functional assay.
human MC3R, sequence (P41968 whole entry): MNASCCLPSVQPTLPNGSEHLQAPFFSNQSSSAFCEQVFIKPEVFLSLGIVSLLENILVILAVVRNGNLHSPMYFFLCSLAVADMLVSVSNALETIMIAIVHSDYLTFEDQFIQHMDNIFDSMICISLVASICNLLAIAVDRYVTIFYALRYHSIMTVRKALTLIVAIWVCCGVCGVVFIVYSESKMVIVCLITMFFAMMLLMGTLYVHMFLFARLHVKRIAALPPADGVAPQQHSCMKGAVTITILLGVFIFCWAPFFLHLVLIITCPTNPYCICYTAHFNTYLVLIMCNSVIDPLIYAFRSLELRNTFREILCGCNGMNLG
For the molecule B1, the “% max activation” value is 45% and the “cAMP EC50” value was 290 nM.

On to B2, for which the “% max activation” value worked out at 62% and the “cAMP EC50” value stood at 3.9 nM.

For the molecule B3, the “% max activation” value came to 45% and the “cAMP EC50” value turned out to be 92 nM.

As to B4, the “% max activation” value turned out to be 15% and the “cAMP EC50” value was 36 nM.

With B5, the “% max activation” value was 100% and the “cAMP EC50” value stood at 13 nM.

For Ac-R[Nle]CR[dF]R[dW]C-NH2 (disulfide 3-8) [CTX-1616], the “% max activation” value was found to be 78% and the “cAMP EC50” value was 61 nM.

On to B6, for which the “% max activation” value worked out at 39% and the “cAMP EC50” value was 58 nM.

Take B7: the “% max activation” value is 35% and the “cAMP EC50” value worked out at 614 nM.

With B8, the “% max activation” value was found to be 83% and the “cAMP EC50” value worked out at 13 nM.

For the molecule B9, the “% max activation” value was 77% and the “cAMP EC50” value came to 19 nM.

On to B10, for which the “% max activation” value is 102% and the “cAMP EC50” value is 2.3 nM.

B11: the “% max activation” value turned out to be 51% and the “cAMP EC50” value amounted to 678 nM.

As for B12, the “% max activation” value was found to be 66% and the “cAMP EC50” value was determined as 5.6 nM.

As for B13, the “% max activation” value amounted to 98% and the “cAMP EC50” value is 3.7 nM.

B14: the “% max activation” value came to 84% and the “cAMP EC50” value was found to be 33 nM.
